Results from patent US20240401082A1 (Sanofi, published 2024).

Assays:
[1] = molecular target: T1, human complement C1s enzyme (activated C1s) (human, UniProt P09871 16-437; P09871 438-688); assay: BLI (Octet), biotinylated target on streptavidin sensor; partially purified protein
T1 construct: Bought from Complement Technology; Disulfide-linked heterodimer; Biotinylated with EZ-Link Sulfo-NHS-LC-LC-Biotin when captured in BLI; also called active C1s; aC1s
T1 sequence 1: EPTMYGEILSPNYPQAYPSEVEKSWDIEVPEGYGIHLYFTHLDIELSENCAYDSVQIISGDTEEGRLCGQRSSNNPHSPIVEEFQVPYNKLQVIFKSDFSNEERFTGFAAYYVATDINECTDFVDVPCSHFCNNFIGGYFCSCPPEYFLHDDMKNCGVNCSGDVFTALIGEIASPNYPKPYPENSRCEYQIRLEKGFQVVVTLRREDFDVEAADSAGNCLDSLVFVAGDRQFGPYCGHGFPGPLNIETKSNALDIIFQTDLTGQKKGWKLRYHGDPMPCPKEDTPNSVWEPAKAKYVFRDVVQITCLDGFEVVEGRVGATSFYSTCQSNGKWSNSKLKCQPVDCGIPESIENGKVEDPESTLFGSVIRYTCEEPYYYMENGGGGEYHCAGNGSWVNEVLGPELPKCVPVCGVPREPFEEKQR
T1 sequence 2: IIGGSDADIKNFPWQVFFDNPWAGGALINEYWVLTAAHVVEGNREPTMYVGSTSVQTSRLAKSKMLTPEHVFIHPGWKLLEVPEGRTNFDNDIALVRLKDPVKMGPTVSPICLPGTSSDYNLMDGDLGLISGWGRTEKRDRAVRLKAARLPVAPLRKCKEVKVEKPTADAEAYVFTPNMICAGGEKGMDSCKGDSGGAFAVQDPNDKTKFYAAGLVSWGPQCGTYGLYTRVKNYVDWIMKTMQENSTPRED
Description: (§1) Bio-layer interferometry (BLI) was used to assess the recombinant proteins' target engagement to and binding affinity for complement C1s enzyme (active C1s or “C1s” herein) and factor Bb (Bb) (Complement Technology, Tyler, TX, USA). C1s and Bb were biotinylated with EZ-Link™ Sulfo-NHS-LC-LC-Biotin (Thermo Fisher, Waltham, MA, USA) according to manufacturer instructions. Biotinylated C1s or Bb was loaded on Octet® Streptavidin (SA) Biosensors (Sartorius, Göttingen, Germany), followed by a concentration range of purified proteins. To assess dual target engagement, biotinylated active C1s or Bb was loaded onto sensors, followed by purified proteins (“first association phase”), followed by the non-captured complement target (Bb or active C1s, non-biotinylated; “second association phase”). The assays were performed at 30° C. using PBS with 0.1% Tween 20 as a diluent (FIG. 3).
(§2) The third expression construct, construct #9 (FIGS. 2B and 21), is composed of a bidirectional minCBA promoter driving expression of separate transcripts encoding human codon-optimized αBb scFab or αC1s scFab [αC1s scFab+αBb scFab], each followed by a bGH poly (A) signal.

[2] = molecular target: T2, human complement factor Bb (human, UniProt P00751 260-764); assay: as above
T2 construct: Bought from Complement Technology; Biotinylated with EZ-Link Sulfo-NHS-LC-LC-Biotin when captured in BLI; also called FBb
Description: as §1, §2

[3] = molecular target: T1, human complement C1s enzyme (activated …); assay: cell-based or functional assay
[4] = molecular target: T2, human complement factor Bb; assay: cell-based or functional assay
[5] = molecular target: T1, human complement C1s enzyme (activated …); assay: cell-based or functional assay; remark: listed apart in the source
[6] = molecular target: T2, human complement factor Bb; assay: cell-based or functional assay; remark: listed apart in the source
[7] = molecular target: T1, human complement C1s enzyme (activated …); assay: cell-based or functional assay; remark: listed apart in the source
[8] = molecular target: T2, human complement factor Bb; assay: cell-based or functional assay; remark: listed apart in the source
[9] = molecular target: T1, human complement C1s enzyme (activated …); assay: BLI (Octet), biotinylated target on streptavidin sensor
Description: as §1

[10] = molecular target: T2, human complement factor Bb; assay: as above
Description: as §1

[11] = molecular target: T1, human complement C1s enzyme (activated …); assay: BLI (Octet), biotinylated target on streptavidin sensor; protein purified to >98%
Description: as §1

[12] = molecular target: T2, human complement factor Bb; assay: as above
Description: as §1

[13] = molecular target: T1, human complement C1s enzyme (activated …); assay: cell-based or functional assay; remark: listed apart in the source
[14] = molecular target: T2, human complement factor Bb; assay: cell-based or functional assay; remark: listed apart in the source
[15] = molecular target: T1, human complement C1s enzyme (activated …); assay: cell-based or functional assay; remark: listed apart in the source
[16] = molecular target: T1, human complement C1s enzyme (activated …); assay: SPR
[17] = molecular target: T1, human complement C1s enzyme (activated …); assay: BLI dual target engagement: one target captured, then protein, then the other target
Description: as §1

[18] = molecular target: T2, human complement factor Bb; assay: as above
Description: as §1

T2 sequence (P00751 260-764): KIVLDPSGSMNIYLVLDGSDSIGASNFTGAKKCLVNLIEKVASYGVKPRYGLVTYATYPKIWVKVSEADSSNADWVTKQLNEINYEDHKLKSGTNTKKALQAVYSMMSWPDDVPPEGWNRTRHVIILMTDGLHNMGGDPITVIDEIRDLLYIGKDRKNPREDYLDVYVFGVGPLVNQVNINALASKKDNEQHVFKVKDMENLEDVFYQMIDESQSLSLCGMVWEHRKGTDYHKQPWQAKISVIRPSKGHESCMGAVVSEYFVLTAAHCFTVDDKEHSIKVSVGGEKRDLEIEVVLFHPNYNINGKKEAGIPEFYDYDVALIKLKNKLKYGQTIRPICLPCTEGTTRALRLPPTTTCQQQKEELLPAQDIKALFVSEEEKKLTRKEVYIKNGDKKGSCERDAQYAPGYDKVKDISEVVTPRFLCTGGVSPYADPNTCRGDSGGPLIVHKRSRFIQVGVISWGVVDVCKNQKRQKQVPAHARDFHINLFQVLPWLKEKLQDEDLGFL

B1: construct #12: αBb scFab-(G4S)3-αC1s scFab-CM (bispecific antibody)
chain: DIQMTQSPSTLSASVGDRVTITCKASQDVGTAVAWYQKKPGKAPKLLIYWASTRHTGVPDRFSGSGSGTDFTLTISSLQAEDFAVYFCHQHSSNPLTFGQGTKLEIKRTVAAPAVFIFPPSDEQLKSGTASVVCLLKNFYPREAKVQWKVDNALQSGNSQESVTEQDSKDSTYSLSSTLTLSKADYEKHKVYACEVTHQGLSSPVTKSFNRGECGGGGSGGGGSGGGGSGGGGSGGGGSGGGGSGGGGSEVQLVESGGGLVKPGGSLRLSCAASGFTFSNYAMSWVREAPGKRLEWVATISNRGSYTYYPDSVKGRFTISRDNAKNSLYLQMNSLRAEDTALYYCARERPMDYWGQGTLVTVSSASTKGPSVFPLAPCSRSTSESTAALGCLVKDYFPEPVTVSWNSGALTSGVHTFPAVLQSSGLYSLSSVVEVPSSSLGTKTYTCNVDHKPSNTKVDKRVGGGGGSGGGGSGGGGSDIVLTQSPDSLAVSLGERATISCKASQSVDYDGDSYMNWYQEKPGQPPKILIYDASNLESGIPARFSGSGSGTDFTLTISSLEPEDFAIYYCQQSNEDPWTFGGGTKVEIKRTVAAPSVFIFPPSDEQLKSGTASVVCLLNNFYPREAKVQWKVDNALQSGNSQESVTEQDSKDSTYSLSSTLTLSKADYEKHKVYACEVTHQGLSSPVTKSFNRGECGGGGSGGGGSGGGGSGGGGSGGGGSGGGGSGGGGSQVQLVQSGAEVKKPGASVKLSCTASGFNIKDDYIHWVKKAPGQGLEWIGRIDPADGHTKYAPKFQVKVTITADTSTSTAYLELSSLRSEDTAVYYCARYGYGREVFDYWGQGTTVTVSSASTKGPSVFPLAPCSRSTSESTAALGCLVKDYFPEPVTVSWNSGALTSGVHTFPAVLQSSGLYSLSSVVTVPSSSLGTKTYTCNVDHKPSNTKVDKRV
notes: Residues 1-20 were left out as the signal peptide, which is marked by boldface only
Kd [1]: 3.6 nM | Kd [2]: 6.6 nM | Wieslab CP IC50, fold of purified anti-C1s Fab [3]: ~14 fold | Wieslab AP IC50, fold of purified anti-Bb Fab [4]: ~7 fold | IC50 CP (Wieslab) [5]: 84.4 nM | IC50 AP (Wieslab) [6]: 702 nM | CP IC50 (Wieslab) [7]: 84.4 nM | AP IC50 (Wieslab) [8]: 702 nM | Kd [9]: 3.6 nM | koff [9]: 0.00065 s⁻¹ | kon [9]: 180000 M⁻¹ s⁻¹ | Kd [10]: 6.6 nM | koff [10]: 0.00055 s⁻¹ | kon [10]: 80000 M⁻¹ s⁻¹ | Kd [11]: 5.4 nM | Kd [12]: 1.5 nM | IC50 CP Wieslab EIA [13]: 10.4 nM | IC50 AP Wieslab EIA [14]: 428 nM

B2: construct #14: αC1s scFab-(G4S)2-αBb scFv-CM (bispecific antibody)
chain: DIVLTQSPDSLAVSLGERATISCKASQSVDYDGDSYMNWYQEKPGQPPKILIYDASNLESGIPARFSGSGSGTDFTLTISSLEPEDFAIYYCQQSNEDPWTFGGGTKVEIKRTVAAPSVFIFPPSDEQLKSGTASVVCLLNNFYPREAKVQWKVDNALQSGNSQESVTEQDSKDSTYSLSSTLTLSKADYEKHKVYACEVTHQGLSSPVTKSFNRGECGGGGSGGGGSGGGGSGGGGSGGGGSGGGGSGGGGSQVQLVQSGAEVKKPGASVKLSCTASGFNIKDDYIHWVKKAPGQGLEWIGRIDPADGHTKYAPKFQVKVTITADTSTSTAYLELSSLRSEDTAVYYCARYGYGREVFDYWGQGTTVTVSSASTKGPSVFPLAPCSRSTSESTAALGCLVKDYFPEPVTVSWNSGALTSGVHTFPAVLQSSGLYSLSSVVTVPSSSLGTKTYTCNVDHKPSNTKVDKRVGGGGSGGGGSEVQLVESGGGLVKPGGSLRLSCAASGFTFSNYAMSWVREAPGKRLEWVATISNRGSYTYYPDSVKGRFTISRDNAKNSLYLQMNSLRAEDTALYYCARERPMDYWGQGTLVTVSSGGGGSGGGGSGGGGSDIQMTQSPSTLSASVGDRVTITCKASQDVGTAVAWYQKKPGKAPKLLIYWASTRHTGVPDRFSGSGSGTDFTLTISSLQAEDFAVYFCHQHSSNPLTFGQGTKLEIK
notes: as for B1
Kd [1]: 1.4 nM | Kd [2]: 2.5 nM | Wieslab CP IC50, fold of purified anti-C1s Fab [3]: ~6 fold | Wieslab AP IC50, fold of purified anti-Bb Fab [4]: ~6 fold | IC50 CP (Wieslab) [5]: 38.6 nM | IC50 AP (Wieslab) [6]: 551 nM | CP IC50 (Wieslab) [7]: 38.6 nM | AP IC50 (Wieslab) [8]: 551 nM | Kd [9]: 1.4 nM | koff [9]: 0.00049 s⁻¹ | kon [9]: 360000 M⁻¹ s⁻¹ | Kd [10]: 2.5 nM | koff [10]: 0.00017 s⁻¹ | kon [10]: 70000 M⁻¹ s⁻¹ | Kd [11]: 1.3 nM | Kd [12]: 4.2 nM | IC50 CP Wieslab EIA [13]: 5.9 nM | IC50 AP Wieslab EIA [14]: 347 nM

B3: parental anti-C1s IgG4 antibody VH3/Vκ2 (antibody, V domains shown)
VH: QVQLVQSGAEVKKPGASVKLSCTASGFNIKDDYIHWVKQAPGQGLEWIGRIDPADGHTKYAPKFQVKVTITADTSTSTAYLELSSLRSEDTAVYYCARYGYGREVFDYWGQGTTVTVSS
VL: DIVLTQSPDSLAVSLGERATISCKASQSVDYDGDSYMNWYQQKPGQPPKILIYDASNLESGIPARFSGSGSGTDFTLTISSLEPEDFAIYYCQQSNEDPWTFGGGTKVEIK
notes: IgG4, from WO 2018/071676; full chains of the mAb are not; also called anti-C1s mAb; VH3/VK2
Wieslab classical pathway IC50 [15]: 22 nM | Kd [16]: 1.5 nM

B4: construct #17: αC1s F2A Fab-(G4S)3-αBb scFab (bispecific antibody)
light: DIVLTQSPDSLAVSLGERATISCKASQSVDYDGDSYMNWYQQKPGQPPKILIYDASNLESGIPARFSGSGSGTDFTLTISSLEPEDFAIYYCQQSNEDPWTFGGGTKVEIKRTVAAPSVFIFPPSDEQLKSGTASVVCLLNNFYPREAKVQWKVDNALQSGNSQESVTEQDSKDSTYSLSSTLTLSKADYEKHKVYACEVTHQGLSSPVTKSFNRGEC
chain: QVQLVQSGAEVKKPGASVKLSCTASGFNIKDDYIHWVKQAPGQGLEWIGRIDPADGHTKYAPKFQVKVTITADTSTSTAYLELSSLRSEDTAVYYCARYGYGREVFDYWGQGTTVTVSSASTKGPSVFPLAPCSRSTSESTAALGCLVKDYFPEPVTVSWNSGALTSGVHTFPAVLQSSGLYSLSSVVTVPSSSLGTKTYTCNVDHKPSNTKVDKRVGGGGSGGGGSGGGGSDIQMTQSPSTLSASVGDRVTITCKASQDVGTAVAWYQQKPGKAPKLLIYWASTRHTGVPDRFSGSGSGTDFTLTISSLQAEDFAVYFCHQHSSNPLTFGQGTKLEIKRTVAAPSVFIFPPSDEQLKSGTASVVCLLNNFYPREAKVQWKVDNALQSGNSQESVTEQDSKDSTYSLSSTLTLSKADYEKHKVYACEVTHQGLSSPVTKSFNRGECGGGGSGGGGSGGGGSGGGGSGGGGSGGGGSGGGGSEVQLVESGGGLVKPGGSLRLSCAASGFTFSNYAMSWVRQAPGKRLEWVATISNRGSYTYYPDSVKGRFTISRDNAKNSLYLQMNSLRAEDTALYYCARERPMDYWGQGTLVTVSSASTKGPSVFPLAPCSRSTSESTAALGCLVKDYFPEPVTVSWNSGALTSGVHTFPAVLQSSGLYSLSSVVTVPSSSLGTKTYTCNVDHKPSNTKVDKRV
binding result [17]: binds | binding result [18]: binds

B5: construct #18: αC1s GT2A Fab-(G4S)3-αBb scFab (bispecific antibody)
light: B4 light
chain: B4 chain
binding result [17]: binds | binding result [18]: binds
